Laboratory results: patent US10875904B2

Biological target: ovalbumin peptide SIINFEKL presented on mouse MHC Class I H-2Kb on OP9-DL1 cells (mouse) (UniProt P01901)
Experiment: cell-based or functional assay

Sequence of UniProt P01901 (P01901 22-369): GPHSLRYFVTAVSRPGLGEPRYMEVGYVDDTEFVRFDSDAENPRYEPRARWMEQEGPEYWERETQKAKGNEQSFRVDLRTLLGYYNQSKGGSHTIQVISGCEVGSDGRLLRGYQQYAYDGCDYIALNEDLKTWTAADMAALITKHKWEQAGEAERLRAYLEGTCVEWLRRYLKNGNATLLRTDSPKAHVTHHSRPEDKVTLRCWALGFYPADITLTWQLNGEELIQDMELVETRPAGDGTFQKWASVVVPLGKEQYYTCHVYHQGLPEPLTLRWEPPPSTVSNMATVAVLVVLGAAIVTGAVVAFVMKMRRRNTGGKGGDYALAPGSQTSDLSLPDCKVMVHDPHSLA

In the case of “OT-1 transgenic TCR (specific for ovalbumin peptide SIINFEKL presented on H-2Kb)”, the development or survival of double positive (DP) T cells from OT-1 progenitors in OP9-DL1 culture, flow cytometry is reported as over 0.01 µM.
